Test results as given in the nanobody polyreactivity screen of Harvey et al. (2022).

test: yeast display, Sf9 membrane polyspecificity reagent, FACS + sequencing; frameworks hold sequencing errors
Procedure, shortened: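 After 36–48 hours of galactose induction, yeast (Saccharomyces cerevisiae BJ5465) displaying a synthetic nanobody library were stained at 4 °C for 1 hour with 10% biotinylated, detergent-solubilized Sf9 membrane reagent. Streptavidin microbeads enriched the stained cells before FACS sorting into low and high (top ~1%) gates on anti-HA and streptavidin fluorescence. Each clone's polyreactivity label reflects its gate of origin.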

Sequence	polyreactivity (PSR sort gate)
QVQLVESGGGLVQAGGSLRLSCAASGRTFYDYAMGWYRQAPGKESEFVAAITDRDASTSYADSVKGRFTISRDNAKNTVYLQMNSLKPEDTAVYYCAADQYWYKPYVGELYDYDYWGQGTQVTVSS	low polyreactivity
QVQLVESGGGLVQAGGSLRLSCAASGSIFAGYAMGWYRQAPGNERELVAAISNRGSSTNYADSVKGRFTISRDNAKITVYLQMNSLKPEDTAVYYCAVGPIRKYDYWGQGTQVTVSS	high polyreactivity
QVHLVESGGGLVQAGGSLRLSCAASGIIFPWTAMGWYRQAPGKERELVAAITSRGSNTYYADSVKGRFTISRDNAKNTVYLQMNSLKPEDTAVYYCAVDSFYYGKYGYWGQGSQVTVSS	high polyreactivity
QVQIVESGGGLVQAGGSLRVSCAASGFTFDENAMGWYRQAPGINYSGASTYYADSVKGRFTISRDNAKNTVYLQMNSVKQDDTAVYYCAAEVVAQMNYWGQGTQVTVSS	low polyreactivity
QVQLVESGGGLVQAGGSLRLSFAASGSTFPVYTMGWYRQAPGKERELVAAITGSGGRTYYADSVKGRFTISRDNAKNTVYLQMNSLKPEDTAVYYCNAYPKGRYAAAFPGMDYWGQGTQVTVSS	high polyreactivity
QVQLVESGGGLVQAGGSLRLSCAASGSIFYTNAMGWYRPAPGKERELVAAIRWSGGRTYYADSVKGRFTISRDNAKNTVYLQMNSLKPEDTAVYYCNVVVRYPSAYDYWGQGTQVTVSS	high polyreactivity
QVQLVESGGGLVQAGGSLRLSCAASGLTFKYYAMGWYRQAPGKESELVAAITSTGGRTYYADSVKGRFTISRDNAKNTVYLQMNSLKPEDTAVYYCAAYYVGSSKYDSWGQGTQVTVSS	low polyreactivity
QVQLVESGGGLVQAGGRLRLSFAASGSIFYRNVLGWYREAPGKERELVATISRGGTTNYADSVKGRFTISRDNAKNTVYLQMNSLKPEDTAVYYCAAPIGDVYVGKGYDSWGQGTQVTVSS	low polyreactivity
QVQLVESGGGLVQAGGSLRLRCAATGRTFGWYAMGWYRQAPGKEREFVATITRSGGRTYYADSVKGRFTISRDNAKNTVYFQMNSLKPEDTAVYYCAADTNRYRYSYDYWGQGTQVTVSS	high polyreactivity
QVQLVESGGGLVQAGGSLRLSCAASGRTFKSYTLGWYRQAPGKEREFVAAISSRGGNTYYADSVNGRFTISRDNAKNTVYLQMNSLKPEDTAVYYSAAESSFWSFPTYDYWGQGTQVTVSS	high polyreactivity
QVQLVESGGGLDQAGGSLRLSCAASGRIFYPYTMGWYRQAPGKERELVAAISSTGRTNYADSVKGRFTISRDNAKNTVYLQMNSLKPEDTAVYYCAKRYRKYSLGPPGNDYWGQGTQVTVSS	high polyreactivity
QLQLVESGGGLVQAGGSLRLSCAASGSTLDRYVMGWYRPAPGKERELVAAISRNGGSTYYADSVKGRFTISRDIAKNTVYLQMNSLKPEDTAVYYCAAYIYQSPTRGGGYWGQGTQVTVSS	high polyreactivity
QVQRVESGGGLVQAGGSVRLSCPASGSIFWSYAMGWYRQAPGKERELVAVINWSGGSTYYADSVKGRFTISRDNAKNTVYLQMNSLNPEDTAVYYCNKDLGPTKRPFTFDYSGQGTQVTVSS	low polyreactivity
QGQRVESGGGLVQAGGSLRLSCAGSGSTCVGYTMGWYRQAPGKERELVAAITSSDGSTYYADSVKGRFTISRDNAKNTVYLQMNSQKPEDTAVYYCAQTTRYPRGYGYWGQGTQVTVSS	low polyreactivity
QVQLVESGGGLVQPGGSLRLSCAASGFIFGYYTMGWYRQAPGKERELVAVITSNGARTYYADSVKGRFTISRDNAKNTVYLQMNSLKPEDTAVYYCNAYRLSVSVGYDYWGQGTQVTVSS	high polyreactivity
QVQLVESGGGLVQAGGSLRLSCAASGSTFYVNAMGWYRQAPGKERELVARITENGGITYYADSVKGRFTISRDNAKNTVYLQMNSLKPEDTAVYYCNTVQYRNEMGYWGQGTQVTVSS	high polyreactivity
QFQLVESGGGLVQAGGSLRLSCAASGSIFVPYAMGWYRQAPGKERELVAAISSSTASTYYADSVKGRFTISRDNAKNTVYLQMNSLKPEDTAVYYCNAEQWDYGVRVAHYDYWGQGTQVTVSS	low polyreactivity
QVQLVESGGGLVQAGGSLRLSCAASGSTFYYNAMGWYRQAPGKEREFVAAITYTGGSTDYADSVKGRFTISRDNAKNTVYLQMNSLKPEDTAVYYCAKGTYGYISTWYDYWGQGTQVTVSS	low polyreactivity
QVQLVESGGGLVQAGGSLRLSCAASGSIFSRYTMGWYRQATGKERELVAAITSSGGSTYYADSVKGRFTISRDNAKNTVYLQMNSLKPEDTAVYYCNAVRRQWYWTAWFSARGYGYWGQGTQVTVSS	high polyreactivity
QVQLVESGGGLVQAGGSLRLSCAASGSTFYHYAMGWYRQAPGKERELVAAISTSGGRTYYADSVKGRFTISRDNAKNTVYLQMNSLKPEDTAVYYCAARSYRYYYGFDYWGQGTQVTVSS	low polyreactivity
QVQLVESGGGLVQAGGSLRLSCAASGLIFTRYAMGWYRQAPGKERELVAAISYSGTSTYYADSVKGRFTISRDNAKNTVYLQMNSLKPEDTAVYYCAAAYSRGSGVGRYRLDYWGQGTQVTVSS	high polyreactivity
QVQLVESGGGLVQAGGSLRLSCAASGFIIVKYAMGWYRQAPGKERELVAAITRGGRTYYADSVKGRFTISRDNAKNTVYLQMNSLKPEDTAVYYCNKARFYDPWLGKYGYKYDYWGQGTQVTVSS	high polyreactivity

Sequence	polyreactivity (PSR sort gate)
QVQLVESGGGLVQAGGSLRLSCAASGRTFPPYAMGWYRQAPGKERELVAAISGSGASTYYADSVKGRFTISRDNAKNTVYLQMNSLKPEDTAVYYCARYRGYWGRYYGVDYGYWGQGTQVTVSS	high polyreactivity
QVQLVESGGGLVQAGGSLRLSCAGSGRTFVYYAMGWYRQAPGREREFVAAISRSGGRTSYADSVKGRFTISRDNAKNTVYLHMNSLKPEDTAVNYCAAEKRTQPTSREYYWGQGTQVTVSS	high polyreactivity
QVQLVESGAGLVQAGGSLRLSCAASGRTLTYNAMGWYRQAPGKEREFVAAISVGGGSTYADSVKGRFTISRDNAKNTVYLQMNRLKPEDTAVYYCAAAYTKLYYYWGQGTQVTVSS	low polyreactivity
QVQLVESGGGLVQAGGSLRLSCAASGFIFDVNAMGWYRQAPGKETELVAAISKSGRRTYYADSVKGRFTISRDNAKNTVYLQMNSLKPEDTAVYYCAASLRASPSFGYWGQGTQVTVSS	high polyreactivity
QVQLVESRGGLVQAGGSLRLSCAASGRTFLYNAMGWYRQAPGKERELVAAITDGGNTYYADSVKGRFTISRDNAKNTVYLHMKSLNPEDTAVYYCNAYVLFYTYFTRGRFDFDYWGQGTQVTVSS	low polyreactivity
QVQHVESCGGLVQAGGSLRLSCAASGFTFASNVMGWYRQAPGKERDLVAAITSGASTNYADSVKGRFTISRDNAKNTFYLQMNSLKPEDTAVYYCAAGRQWYVFYEFDYWGQGTQVTVSS	high polyreactivity
QVQLVESGGGLVQAGGSLRLSCAASGIGHNAMGWYRQAPGKERELVAAISSSGGRTYYADSVKGRFTISRDNAKNTVYLQMNSLKPEDTAVYYCARRAVYGIFDYWGQGTQVTVSS	high polyreactivity
HVQLVESGGRLVQAGGSLRLSSAASGLNFYYYAIGWSRQAPGKERELVAAISRRGGSTYYADSVKGRFTISRDNAKNTVYLQMNSLKPEVTEVYYCAAKSGSFVHGGYQTPVYGSDYWGQGTQVTVSS	high polyreactivity
QVQLVESGGGLVQAGGSLRLSCAASGSIFSYYDMGWYRQAPGKERELVASISSGGSTYYADSVKGRFTISRDNAKNTVYLQMNSLKPEDTAVYYFGAVSRWLYWEDVYWGQGTQVTVSS	low polyreactivity
QVQLVESGGGLVQAGGSLRLSCAASGRIFTSNAMGWYSQAPGKERELVAAITKSGGSTYYADSVKGRFTISRDNAKNTVYLQMNSLKPEVTAVYYCSAYPTSRYKYEYWGQGNQVTVSS	high polyreactivity
QVQLVESGGGLVQAGGSLRLSCAASGNTFPVYAMGWYRQAPGKERELVAAINTSGGSTYYADSVKGRFTISRDNAKYTVYLQMNSLKPEDTAVYYCAADWSYYGDELYYWGQGTQVTVSS	low polyreactivity
QVQLVESGAGLVQAGGSLRLSFAASGRTFVSYDMGWYRQATGKERELVAAITYSGGSSTYYADSVKGRFTISRDNAKNTVYLQMNSLKPEDTAVYYCAVYGGGSRNFGDVGYWGQGTLVTVSS	low polyreactivity
QVQLVESGGGLVQAGGSLRLSCAASGFIFSRNAMGWYRQAPGKERELVASITRRGGSKYYADSVKGRFTISRDYAKNTVYLQMNSLKPEDTAVYYCAADGYVRPPEMDYWGQGTQVTVSS	high polyreactivity
QVQLVESGGGLVQGGGSLRLSCAASGSIFPHNAMGWSRQAPGKERELVASITSRGGITYYADSVKGRFTISRDNAKNPLNLQMNSLKPEDTAVYYCAADLYIYPYDYWGQGTQVTVSS	low polyreactivity
QVQLVESGGGLVQAGGSLRLSCAASGIIFGRYPMGWYRQAPGKERELVAAITSSGITYYADSVKGRFTISRDNAKNTVYLQMNSLKPEDTAVYYCNADYSIPGYYWPYDYWGQGTQVTVSS	low polyreactivity
QVQLVESGGGLVQAGGSLRLSCAASGRIIYIYAMGWYRQAPGKERELVAAITASSGSTNYADSVKGRFTISRDNAKNTVYLQMNSLKPEDTAVYYCAAAPSRTLLRQSKYYYWGQGTQVTVSS	low polyreactivity
QVQLVESGGGLVQAGGSLRLSCAASGITFGDYAMVWYRQAPGKERELVAGINWSGDGTYYADSLKGRFTISRDKAKNTVYLQMNSLKPEDSAVYYCAAETFYDYGGYDYWGQGTQVTVSS	low polyreactivity
QVQLVESGGGLVQAGGSLRLSCAASGFIFGVYAMGWYRQAPGKERELVASISVSGDDTYYADSVKGRFTISRDNAKNTVYLQMNSLKPEDTAVYYCAADYPGGIYYDDYLYDMDYWGQGTQVTVSS	low polyreactivity
QVQLVESGGGLVQAGGSLRLSCAASGSTFYKNAMGWYRQAPGKERELVAAITRSGGSTYYADSVKGRFTISRDNAKNTVYLQMNSLKPEDTAVYYCAYYPYGYDYWGQGTQVTVSS	high polyreactivity
QVQLVDSGGGLVQAGGSLRLSCAASGSTLNSYVIGWYRQAPGKERELVATIRSGSSTNYADSVKGRFTISRDNAKNTVYLQMNSLKPEDTAVYYCAADAYSLCYDSWGQGTQVTVSS	low polyreactivity
QVQLVESGGGFVQAGGSLRLSCAASGFIFDTYAMGWYRQAPGKERELVAAITTTGGSTYYADSVKGRFTISRDTAKNTVYLQMNSLKPEDTAVYYCAARHYRIHYDYWGQGSQVTVSS	high polyreactivity
